Assay results published in the supplement of paper PMC12042874.
± gives the uncertainty stated by the source.

Experiment: amyloid nucleation score (Sup35N fusion, yeast selection) (log enrichment); library NNK3; higher = more nucleation; inactive = no reads after selection
Outline: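 For the nucleation score, DiMSum gave the log enrichment of output over input reads, centred on the mode score of non-aggregating sequences. Psi-negative yeast expressing Sup35N fused to peptides of 20 random codons were induced with 100 μM copper sulfate for 24 hours and grown 7 days at 30°C on medium lacking adenine and uracil. Input and output plasmid inserts were Illumina-sequenced, and sequences with under 100 input reads were excluded.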

Substance	amyloid nucleation score
WRSCSKDHLCFQSPVMPLSR	0.214 ± 0.42
WRYYRAYKVITHIKFLFFTE	inactive
WSAIVDSWCDSSRRVEIVVR	inactive
WSFNGSNECISRLDINLNVF	0.407 ± 0.15
WSFVPRGIVVSRRLSVYTRT	inactive
WSLSYHRKMIFGDTCVTYIG	inactive
WSMSDFAALIGWIDALGLEL	inactive
WSNNMWYVRYSDFCISCLLV	inactive
WSRSSADRVII	-0.471 ± 1.5
WSTESWTYPGIRMCFWGGEG	-0.755 ± 1.4
WTGMPRTGWDGPRYKALSRS	inactive
WTNSSQHLSESLWYVDYCQG	inactive
WTRHGSEFVCYNSGHLWVFD	0.164 ± 0.31
WTSQVMRMDKTQVTGRDRVA	inactive
WTSSVILRPSMCLLGWYMLV	inactive
WTTYLWVAGVLA	inactive
WTWGKAYDAMFLIVTFFCIF	inactive
WTYIWCAN	1.75 ± 0.11
WVFLNRAQQHSNVLPSQGLV	inactive
WVFSSNVRKYMRALRRRYSD	inactive
WVGNTVKHKLGLVGNCGSCA	-0.73 ± 1.9
WVIRELTWITWIVLADLS	inactive
WVPKFYRLGSDTWSSVSLDV	inactive

Substance	amyloid nucleation score
WVRAA	inactive
WVRCVRQGVYLRYVLLLCEI	inactive
WVWIVSMVRRGSEAFEALEM	inactive
WWCMNRCEDAASINGIVARK	inactive
WWFLGGRSRGDRGILMVDVA	0.214 ± 0.53
WWGNRAVVYIILLHEPGAWR	inactive
WWTNLATPAKNQS	inactive
WYKNYASTRIPMIEWKRILT	inactive
WYLMCWCCLKVPVAQLM	0.671 ± 0.19
WYMCLGSLMSIVF	inactive
WYMECTVACSSIICSWKWGL	inactive
WYMHTTLD	inactive
WYVCRSGVCGHALIALATRR	-0.483 ± 0.61
WYVYKFCEPVGDRGRFVWCL	-0.212 ± 0.84
YAFGGQLFAFVLRNENIFSG	1.37 ± 0.085
YAFLLYY	inactive
YAFVCSDV	inactive
YAHLWKNSEAGWSGKYSILW	inactive
YALLKHSTWYRVGQF	inactive
YANWLVLILYG	1.32 ± 0.11
YARYNTLVLSAKPPLLYDSW	inactive
YASDWVRRPGRN	inactive
YAVCSSLKYLIVESSKLTSV	0.038 ± 0.36

Substance	amyloid nucleation score
YCAFLTNPHVLDFSMNCCKL	2.29 ± 0.059
YCSLLSDERGSSVTGILAVF	inactive
YCYFFLGLCTYKSQYNGLRL	inactive
YDLGVAVLNRNSKRSC	inactive
YDRGLISWTCVRVSS	inactive
YDTLDTKCAVADKEIFCRIP	inactive
YEAYV	inactive
YELFS	0.922 ± 0.11
YENCSMYYSTTGIPAMCEIT	inactive
YEPTSAK	inactive
YESRGEGVMPSTQLWMSRLG	inactive
YFCSFREVRSHGQTLR	inactive
YFEYRPKMHHYSLCYMGEFS	inactive
YFGGRM	inactive
YFMIDRPALRLVDKKCGSRS	inactive
YFPSSCCNDFVFSSLEFQSM	2.12 ± 0.055
YFRFRSFLVLSDM	inactive
YFRYRSDVIAYISVIIGNLV	inactive
YFTSEPLSAPSQWGRVKGSA	inactive
YFTYGRQCMVVLDCLVDRRG	inactive
YFVFKALRSIPNGLMLSLRG	inactive
YFVLFVRQCVKLVMRFGSED	inactive
YFYWTCSDKRVTIEDVVPLH	inactive

Substance	amyloid nucleation score
YGFRRTACMCL	inactive
YGLVLGFRRTGYTCDDSLNW	inactive
YGVYISIFILCWNGGNNDDC	inactive
YHEGLYCGWSYNNCYLTFIG	0.821 ± 0.25
YHLFLDVVFFHSTKDESRKN	0.187 ± 0.6
YHVMV	inactive
YHYLSNVGMRWGDFTYSWFM	inactive
YIEAMNAGLPGEPARYFVVS	inactive
YIFEPV	0.318 ± 0.77
YIFVMLEHVG	inactive
YIGVRGFLLYPFNRVFEVMM	inactive
YIIRENLW	inactive
YIISRFYMAVWGDKPLYTGL	inactive
YIMCCGV	1.61 ± 0.073
YINLFLLSGSFVFRVDHHFI	2.47 ± 0.088
YISCMCANIRNIFVISIH	1.81 ± 0.08
YISSFKFRLSCLRYQIVNSV	inactive
YITLRGLWRYCQVMLVYVWK	inactive
YIVRDNEAYRKYGSANESGC	inactive
YIVSSSD	inactive
YKCHMSVYRGFINCNVVLMR	inactive
YKCMLYSFG	inactive
YKICSLACVKHGREPV	inactive

Substance	amyloid nucleation score
YKIYIFFGTVYMGVDRDQIG	2.89 ± 0.063
YKNSWLKW	inactive
YKPLFVCSRHLMNRELCTGY	inactive
YKSPFTGNCLYTVVIKDINL	1.55 ± 0.085
YKYRSLYFSRYIVLYVVGVL	inactive
YKYVTNDLSRVILRPVSARY	inactive
YLCIKNRLDKDRSW	inactive
YLCWAFDTMVSGDRGPRSC	-0.102 ± 0.81
YLEVLVGSNQCFNMQG	inactive
YLFEYSEV	inactive
YLFVELYYL	0.187 ± 0.75
YLIYCL	inactive
YLLSL	inactive
YLMSYGRWDRWKWWYFYRLW	inactive
YLQFIDENS	inactive
YLRDNKAWLASSSKL	inactive
YLRGVFLRYGG	inactive
YLRWLLFYS	inactive
YLVFNQY	1.17 ± 0.086
YLVLKDTRYAYTLLRSMLSA	inactive
YLVSDE	inactive
YLVTIILI	1.32 ± 0.16
YMLHGTRRLRRETYGGAGRR	inactive

Substance	amyloid nucleation score
YMRLGRWWSFKAVDGRRLKW	-0.373 ± 1.3
YMSFFIFIPIFLCVNLDRVC	2.38 ± 0.061
YMSLVRTGKNTQMVVYRLVL	inactive
YNFNV	inactive
YNFWMRQVVMRVTVCGNDEA	inactive
YNKGFALIRIVRQTERRLHT	inactive
YNKWCLHLCLRNLSMEEGMD	1.87 ± 0.11
YNLDDIDSITLYLAVSLCKV	inactive
YNLGRNS	inactive
YNMCLRDRVLFVIIDVRIFW	0.035 ± 0.35
YNRFKKLSMA	inactive
YNSYK	inactive
YNYFFPYTNVYNIFSIYKAV	3.6 ± 0.078
YPGFSAGCDVWQKFNYGVMT	inactive
YPLFMDYMLTCVHM	inactive
YPLSPRLLRTTTMHSTQGVG	inactive
YPRKFINLNRHWVVVNVFRM	inactive
YPSMLPGTGSIAIMDEFVIM	inactive
YQFDFTF	inactive
YQGKLI	inactive
YQICGCSCLSYLPFLTSSIF	inactive
YQNIDYMKGYKVISKD	inactive
YQRGVRFRSHWMRSGKWDHF	inactive

Substance	amyloid nucleation score
YQSKQRVGSS	inactive
YQVSI	inactive
YRAECNNFLMPLCCTEFFQI	2.2 ± 0.087
YRANINRVLVFQLN	1.44 ± 0.086
YRDRIVNHIVGLLGIGS	1.16 ± 0.11
YRFLHSEVEVAHFWLWCSSS	inactive
YRFVRGWFRMRIERPAAPCT	inactive
YRFYLVSVVFKTDEVARKSE	inactive
YRGIKFTYKPGLLGQFHRED	inactive
YRILINFLSWYLCIYYASCA	inactive
YRILTGLSLSFRVCIYFVW	inactive
YRKLFDFRRVSTLHFTKSN	inactive
YRLQLPYSVNEAVFLLVGSK	inactive
YRMTGKLYAVIECSDTVLSG	inactive
YRNELCYIQRRYLPYGRWTA	inactive
YRNSICHNREKAWHGSNKNR	inactive
YRPRGERLRFMYCY	inactive
YRVRLCNGSCAQVWCLIRPP	inactive
YRYCINVTKYHLLQ	inactive
YSDFAWDPRSKNKYGWHPRL	inactive
YSFCVSVATEQLKHLSSLWH	inactive
YSFRVTYEGPHAN	0.873 ± 0.14
